Assay results: PMC4245980

How the values were obtained:
Test in all cases: EMSA
[1] = molecular target: McbR WT (Escherichia coli, UniProt P76114 1-221)
[2] = molecular target: McbR E93S/R139F (Escherichia coli, UniProt P76114 1-221, E93S;R139F)
[3] = molecular target: McbR R89A/E93A/R139A (Escherichia coli, UniProt P76114 1-221, R89A;E93A;R139A)

Measured: binding result

B1: PyciGECO (dsDNA)
DNA 1: AATTGTTAATATATCCAGAATGTTCCTCAAAATATATTTTCCCTCTAT
DNA 2: ATAGAGGGAAAATATATTTTGAGGAACATTCTGGATATATTAACAATT
binds: [1] | [2] | [3]
